In the supplement of paper PMC10126150:
± gives the standard deviation of the averaged measurements.

System: ATP
Experiment: switch fluorescence ratio, 500 uM ATP over buffer (Cy3 cluster intensity, sum of 5 cycles each) (fold (ratio)); higher = stronger signal-on switching upon ATP binding; sequences stand for … in TCGTCGGCAGCGTCAGATGTGTATAAGAGACAGTTTTTTTTTTTTTTTTTTTTTTTTT…TC
Conditions: aptamer strand: ATP DNA aptamer (quencher-CACCTGGGGGAGTATTGCGGAGGAAGG + anchor), 100 nM annealed; ATP concentration: 500 uM
Outline: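 Exposure to 500 uM ATP lasted 15 min at 22 °C before imaging, and a selection-buffer image was taken beforehand, for Cy3-labelled switching-strand clusters on a modified Illumina MiSeq flow-cell annealed to 100 nM quencher-labelled ATP aptamer. Five buffer/ATP cycles were run with NaOH stripping and re-annealing between them. The fluorescence ratio per cluster is summed target-cycle over summed buffer-cycle Cy3 intensity, averaged per switch-domain sequence. Clusters outside 100-1000 RFU were excluded.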

Sequence	switch fluorescence ratio
ATCTGAGTTG	0.989 ± 0.031
GATGCAAGTG	1.07 ± 0.033
AGAGATATTT	0.992 ± 0.029
GAGTCGGTTA	0.98 ± 0.045
TCTTAGGTGG	1.05 ± 0.016
GTTGAGGTTC	1.03 ± 0.035
CTAAGAGGGC	1.0235 ± 0.00018
GAACCTGTGT	0.993 ± 0.052
GTTCCAAAGC	1.23 ± 0.019
CTAAATTTAG	0.995 ± 0.023
TCAGATTAGC	0.998 ± 0.018
TCGTGATGTA	0.974 ± 0.014
AATGAAGAAG	1.17 ± 0.22
CATTGTGGGA	0.997 ± 0.023
CGGCGAACTC	1.11 ± 0.033
TTTAGGGTTC	1.04 ± 0.1
AAGGGCAACG	0.974 ± 0.063
TTCAGGGGCG	1.07 ± 0.13
GGAAGGGGTG	1.01 ± 0.035
TTCGTATTGT	0.975 ± 0.018
GATTGTGAT	1.01 ± 0.04
AATAAGTATT	1.024 ± 0.003
ATGGGTGGGG	1.01 ± 0.037
TTATGATGGA	0.991 ± 0.013
CGTCCGGATG	1.19 ± 0.13

Sequence	switch fluorescence ratio
GGGGGGATGG	1.07 ± 0.23
CTGGTATGTG	0.997 ± 0.029
AGGTGGGGGA	0.995 ± 0.031
ACCGGTTACA	1.03 ± 0.042
AGAAGCAGG	1.21 ± 0.26
GAGGTAGGGA	1.06 ± 0.13
GACGGGCTGG	0.989 ± 0.024
TATATGTCCA	1 ± 0.027
GGGCTGGGGG	1.01 ± 0.057
TTTGTCTATA	1 ± 0.017
GGATACTCGC	1.126 ± 0.01
CGTTTAAAAG	0.975 ± 0.022
AGACTGGAGC	1.06 ± 0.026
GACGCGGAAC	5.48 ± 0.37
GATCACTGTA	1.15 ± 0.036
TGGGGGGATG	0.996 ± 0.011
AAAGGAAAGG	0.992 ± 0.014
TATGTAGGGC	1.02 ± 0.05
CCTTGGGGTG	1.06 ± 0.14
TCTCTTGGGA	1.03 ± 0.024
GAGGGGCTGG	0.984 ± 0.046
GAGGTAGCTA	1.03 ± 0.0051
TCCGTTAAGA	1.083 ± 0.0019
TTAGGGCTCG	1.01 ± 0.057
GAGTTTCAGA	1.033 ± 0.0033

Sequence	switch fluorescence ratio
GGAAACTCGG	0.986 ± 0.029
GGGGTCCAAG	1 ± 0.017
TTTCTCGTCT	0.988 ± 0.011
CTAAGAAGGG	1.05 ± 0.061
GGGGAGAGGC	1.08 ± 0.11
AAGTTACAGT	1.04 ± 0.036
TATTTATGGT	0.976 ± 0.039
TGCGGTGACC	1 ± 0.014
CTGGCGGAAA	1.05 ± 0.093
TATGATATCC	0.9783 ± 0.0089
TTTTGTCGCA	0.9913 ± 0.0075
ATAGTGTTGA	1.03 ± 0.011
TACAGGTTGT	1.21 ± 0.19
TTAGAACTCT	1.01 ± 0.014
GCACGGGACT	1.184 ± 0.011
AAAGTGGTGG	1.02 ± 0.039
GGCCCTAAGT	0.976 ± 0.026
AATGGTGTGG	0.995 ± 0.014
GGGTTGAGGT	0.9843 ± 0.0092
TCAAGGGGTG	1.034 ± 0.0082
TAAGGGGGTC	0.981 ± 0.012
GGGAGTCTTC	1.04 ± 0.1
GACCCAAGGC	1.194 ± 0.01
GAGGATGTTA	1.03 ± 0.036
AGGGCGTAAG	0.9716 ± 0.0055

Sequence	switch fluorescence ratio
GGATGTTTCG	1.02 ± 0.02
TTAAAAGCGA	0.974 ± 0.023
TAAGCTGTCA	0.965 ± 0.064
AGAAAATAGT	1.03 ± 0.032
CTGCTTAAGG	1.04 ± 0.065
TTTTGTTTTT	1.08 ± 0.44
CAGTTCGTTT	0.9845 ± 0.0063
ACTGCTGAAT	0.99 ± 0.045
GCGATTGTGT	1.002 ± 0.0055
TGTGTTAAGG	0.973 ± 0.011
TTAGTTTTAT	1 ± 0.027
TTACATTTAT	1.023 ± 0.0083
TTTTGTTCCC	1 ± 0.034
CCTGTCTTCT	0.9869 ± 0.0061
ATCTTTGTTG	0.987 ± 0.018
GTGATGTTAG	1.01 ± 0.011
TCCAGAGATG	0.997 ± 0.028
AGGCTTTGCA	0.992 ± 0.01
GGAGATGGGG	1.02 ± 0.018
GCACAAGTTG	1.02 ± 0.019
AGCTATGGGA	1.04 ± 0.015
GAAAGATGAC	1.03 ± 0.088
ATTAAATGAG	1.01 ± 0.022
CTTGGGGGGT	0.97564 ± 0.00052
TTCCCGGCAG	1.38 ± 0.47
